{"source": "patent US20060211624A1", "about": "“Methods and compositions for the treatment of parkinson's disease and other alpha-synucleinopathies” (Goverment of the US, as Represented by, priority 2003, published 2006)", "proteins": {"B1": {"name": "purified guinea pig liver tTGase (protein)", "chain": "AEDLILERCDLQLEVNGRDHRTADLCRERLVLRRGQPFWLTLHFEGRGYEAGVDTLTFNAVTGPDPSEEAGTMARFSLSSAVEGGTWSASAVDQQDSTVSLLLSTPADAPIGLYRLSLEASTGYQGSSFVLGHFILLYNPRCPADAVYMDSDQERQEYVLTQQGFIYQGSAKFINGIPWNFGQFEDGILDICLMLLDTNPKFLKNAGQDCSRRSRPVYVGRVVSAMVNCNDDQGVLQGRWDNNYSDGVSPMSWIGSVDILRRWKDYGCQRVKYGQCWVFAAVACTVLRCLGIPTRVVTNFNSAHDQNSNLLIEYFRNESGEIEGNKSEMIWNFHCWVESWMTRPDLEPGYEGWQALDPTPQEKSEGTYCCGPVPVRAIKEGHLNVKYDAPFVFAEVNADVVNWIRQKDGSLRKSINHLVVGLKISTKSVGRDEREDITHTYKYPEGSEEEREAFVRANHLNKLATKEEAQEETGVAMRIRVGQNMTMGSDFDIFAYITNGTAESHECQLLLCARIVSYNGVLGPVCSTNDLLNLTLDPFSENSIPLHILYEKYGDYLTESNLIKVRGLLIEPAANSYVLAERDIYLENPEIKIRVLGEPKQNRKLIAEVSLKNPLPVPLLGCIFTVEGAGLTKDQKSVEVPDPVEAGEQAKVRVDLLPTEVGLHKLVVNFECDKLKAVKGYRNVIIGPA"}}, "target": "purified recombinant human α-synuclein protein, P37840"}
{"protein": "B1", "values": [{"measurement": "formation of high molecular weight aggregates of α-synuclein (in vitro cross-linking reaction, SDS/PAGE and Western blot)", "result": "In the presence of DTT, the reduced form of tTGase induced the formation of high molecular weight aggregates of α-synuclein"}]}
